Consider two substances from US20260077041A1.

The target in test [1] is TNFα (human) (UniProt P01375). Nature of the test: SPR (Biacore T200), drug captured on protein A chip, TNFα as analyte, multi-cycle.
Test [2] addresses IL-17A (human) (UniProt Q16552). Nature of the test: SPR (Biacore T200), drug captured on protein A chip, IL-17A as analyte, multi-cycle.

TNFα (human), sequence (P01375 77-233 limits assumed): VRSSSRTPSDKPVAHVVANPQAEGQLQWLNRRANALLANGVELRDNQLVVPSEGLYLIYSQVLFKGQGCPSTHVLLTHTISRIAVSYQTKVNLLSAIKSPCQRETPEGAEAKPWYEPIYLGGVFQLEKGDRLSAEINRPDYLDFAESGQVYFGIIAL
IL-17A (human), sequence (Q16552 24-155 limits assumed): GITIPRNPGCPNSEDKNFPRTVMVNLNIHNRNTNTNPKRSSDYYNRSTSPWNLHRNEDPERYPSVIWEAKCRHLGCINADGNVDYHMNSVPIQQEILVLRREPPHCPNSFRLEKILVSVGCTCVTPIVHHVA

The term Kd denotes a measure of binding affinity in units of concentration. Low readings indicate higher affinity, high ones lower affinity. As usually defined, the koff is a measure of how fast the partners let go of each other. Usually kon stands for a measure of how fast the partners come together. In test [1], Humira (antibody) yielded a Kd of 0.16 nM, a koff of 0.00015 s⁻¹ and a kon of 941000 M⁻¹ s⁻¹.

In test [2], Cosentyx (antibody) yielded an equilibrium dissociation constant (Kd) of 0.0787 nM, a koff of 6.12e-05 s⁻¹ and a kon of 778000 M⁻¹ s⁻¹.
